In IntAct's records for PubMed 24525235:

B1: Twist-related protein 1 (Homo sapiens), Q15672 (parent)
chain: MMQDVSSSPVSPADDSLSNSEEEPDRQQPPSGKRGGRKRRSSRRSAGGGAGPGGAAGGGVGGGDEPGSPAQGKRGKKSAGCGGGGGAGGGGGSSSGGGSPQSYEELQTQRVMANVRERQRTQSLNEAFAALRKIIPTLPSDKLSKIQTLKLAARYIDFLYQVLQSDELDSKMASCSYVAHERLSYAFSVWRMEGAWSMSASH

Variants of: B1
Conditions: with BRD4, O60885-1

Row | Variant | effect of a mutation on the interaction
1 | K76R | decreasing interaction strength
2 | K73R;K76R | disrupting interaction strength
3 | K73R | decreasing interaction strength
